Molecular target: T1, human mtRNase P (TRMT10C-SDR5C1 and PRORP) (Homo sapiens, UniProt Q7L0Y3+Q99714)
T1 construct: made in house; host or cells: E. coli
T1 sequence (Q99714 1-261): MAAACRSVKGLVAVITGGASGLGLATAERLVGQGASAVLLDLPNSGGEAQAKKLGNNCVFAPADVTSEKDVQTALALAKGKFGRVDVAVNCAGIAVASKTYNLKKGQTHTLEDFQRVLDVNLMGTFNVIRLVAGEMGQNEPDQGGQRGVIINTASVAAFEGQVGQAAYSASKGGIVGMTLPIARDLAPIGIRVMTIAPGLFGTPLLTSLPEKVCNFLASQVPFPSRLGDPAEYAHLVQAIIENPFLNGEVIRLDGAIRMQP
T1 sequence (Q7L0Y3 40-403 partner): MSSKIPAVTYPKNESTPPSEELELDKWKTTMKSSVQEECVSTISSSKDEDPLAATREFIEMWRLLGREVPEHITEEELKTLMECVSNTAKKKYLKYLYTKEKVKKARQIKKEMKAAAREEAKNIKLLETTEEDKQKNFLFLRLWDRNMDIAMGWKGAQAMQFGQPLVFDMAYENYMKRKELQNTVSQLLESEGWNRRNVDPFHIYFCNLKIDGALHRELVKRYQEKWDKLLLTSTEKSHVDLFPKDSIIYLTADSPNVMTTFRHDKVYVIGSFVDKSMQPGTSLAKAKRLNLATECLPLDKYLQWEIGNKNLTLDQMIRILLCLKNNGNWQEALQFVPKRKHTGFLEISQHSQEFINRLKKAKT
Experiment: RNase P assay, (mt)tRNA^His precursor cleavage
Type: biochemical
Details: freshly dissolved fragments, up to 10 µM; three independent experiments
Text: Samples for analysis were withdrawn at defined intervals or at known linear-range time-points and phosphor imaging data quantitatively analyzed with ImageQuant TL 7 (GE Healthcare).

Row | effect on tRNA 5′-end processing by mtRNase P | Substance
1 | none of the two affected | Aβ1–28: synthetic Aβ peptide fragment, amino acids 1–28 (rPeptide)
2 | none of the two affected | Aβ25–35: synthetic Aβ peptide fragment corresponding to amino acids 25–35 (rPeptide) (GSNKGAIIGLM; Amyloid-beta protein 40; UniProt P05067 696-706, looked up, fragment)

Source: PMC3673994 (PLoS ONE, 2013)
